Measured values from the nanobody polyreactivity screen of Harvey et al. (2022).

experiment: yeast display, Sf9 membrane polyspecificity reagent, FACS + sequencing; frameworks hold sequencing errors
How it was run: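 After 36–48 hours of galactose induction, yeast (Saccharomyces cerevisiae BJ5465) displaying a synthetic nanobody library were stained at 4 °C for 1 hour with 10% biotinylated, detergent-solubilized Sf9 membrane reagent. Streptavidin microbeads enriched the stained cells before FACS sorting into low and high (top ~1%) gates on anti-HA and streptavidin fluorescence. Each clone's polyreactivity label reflects its gate of origin.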

Row | Sequence | polyreactivity (PSR sort gate)
1 | QVQLVESGGGLVQAGGSLRLSCAASGRIFWVNAMGWYIQAPGKERELVAVISRGGSTTYADSVKGRFTISRDNEKNTVYLQMNSLKPEDTAVYYCAADAYSHAFLYYGYDYWGQGTQVTVSS | low polyreactivity
2 | QVQLVESGGGLVQAGGSLRLSCAASGSIFSPNVMGWYRQAPGKERELVAAINGSGSRTYYADSVKGRFTISRDNAKNTVYLQMNSLKPEDTAVYYCAAGSLGRYYFKLDYWGQGTQVTVSS | high polyreactivity
3 | QVQLVESGAGLVQAGRSLRLSCASSGITIKRYAMGWYSQAPGKESELVAAINFGAGNTYYADSVKGRFTISRDNAKNPVYLQMNSLKPEDSAVYYCATTARHRYGEYYYWGLGTQVTVSS | high polyreactivity
4 | QVQLVESGGGLVQAGGSLRLSCAASGSTFAPYAMGWYRHAPGKERELVASIRSTGSTNYADSVKGRFTISRDNAKNTVYLQMNSLKPEDTAVYYCAARYRRYQYRVKVDYYYWGQGTQVTVSS | high polyreactivity
5 | QVQLVDTAGGLVQAGGILRLSCAASGSTMYGYAMGWYRQTPGKERELVAAINTGGSTNYADSVKGRFTISRDNAKNTVYLQMNSLKPDDTAVYYCAASYSLSFWDKDDYWGQGTQVTVSS | low polyreactivity
6 | QVQLVESGGGLVQAGGRLRFSCAASGSNFPVYAMGWYRHAPGKERELVADITYTTGSTYYADSVKGRFTISRDNAKNTVYLQMHSLKPEDTGVYYCNARDYTWYLHLGYSTLYWGQGTQVTVSS | low polyreactivity
7 | QVQLVESGRGLVQAGGSLRLSCAASGGIFTDYTMGWYRQAPGKERELVAAITWTGGSTYYADSVKGRFTISRDNAKNTFYLQMNSLKPEDSAVYYCAADDYWVNLVYWGQGTQVTVSS | low polyreactivity
8 | QVQLVESGGGLVQAGGSLRLSCAASGSIFESYVMGWYRQAPGKERELVAAISSGGSTYYADSVKGRFTISRDNAKNTVYLQMNSLKPEDTAVYYCAKRSHTYSVPGVYNEGDYWGQGTQVTVSS | low polyreactivity
9 | QVQLVESGGGLLQAGGSLRLSCAASGSIFYRYAMGWYRQAPWKERELVAAISRSGASTYYADSVKGRFTISRDNAKNTVYLQMNSLKPEDTAVYYCAAYFATSRLPVRYDYWGQGTQVTVSS | high polyreactivity
10 | QVQLVESGGCLVQAGGSLRLSCAASGRIFQYYTMGWYRQAPAKERELVAAITYSGGDTRYADSVKGRFTISRDNAKNTVYLQMNSLKPEDTAVYYCAADYFDQYQYGVWTYGYWGQGTQVTVSS | low polyreactivity
11 | QVQLVESGGGLVQAGGSLRLSCAASGRTFSYNAMGWYRPAPGKERELVAVITYSGGSTYYADSVKGRFTISRDNAKNTVYLQMNSLKPEDTAVYYCNADGYRPYQNGYDYWGQGTQVTVSS | high polyreactivity
12 | QVQLVESGGGLVQAGGSLRLSCDASGSTFGRNAMGCYRQAPGKESELVAAITASGGRTYYADSVKGRFTISRDNAKNTVYLQMNSLKPEDTAVYYCAAASRVGFLYYYWGQGTQVTLSS | low polyreactivity
13 | QVQLVESGGGLVQAGGSLRLSCAASGRIFGHYVMGWYRQAPGTERELVAAISYSGGSTYYAHSVKGRFTISRDNAKNTVYLQMNSLKPEDTAVYYCAAYVYRYHRVAYEYWGQGTQVTVSS | high polyreactivity
14 | QVQLVESGGGLVQAGGSLRLSCAASGITFLYYAMGWYRQAPGKERELVAAITRGGRTNYADSVKGRFTISRDNAKNTVYLQMNSLKPEDTAVYYCAARRSRPTYYSTGVNYWGQGTQVTVSS | high polyreactivity
15 | QVQLVESGGGLVQAGGSLRLSCAASGSIFHYNAMGWYRQAPGKEREFVAVISKSSGSTFYADSVKGRLTISRDNAKNTVYLQMNSLKPEDTAVYYCNRVTKRYRKIGNYWGQGTQVTVSS | high polyreactivity
16 | QVQLVVSGGGLVQAGGSLRLSFAASGFIFRYYGGGWYTPAPGKERELVAAITSTGRRYYADSVKGRFTISRDNAKNTVYLQMNSLKPEDTAVYYCAKAWLRWCEDYWGQGTQVTVSS | low polyreactivity

Row | Sequence | polyreactivity (PSR sort gate)
17 | QVQLVESGGGLVQAGGSLRLSCAASGFNFGWYAMGWYRQAPGKERELVAAISGRGGSTNYADSVKGRFTISRDNAKNTVYLQMNSLKPEDTAVYYCNAALSPWGNNYWGQGTQVSVSS | high polyreactivity
18 | QVQLVESGGGLVQAGGSLRLSCAASGRTFVYYDMGWYRQAPGKERELVASINWSGGSTYYADSVKGRFTISRDNAKNTVYLQMNSLKPEDTAVYYCAKEEITEWGVDSWGQGTQVTVSS | low polyreactivity
19 | QVQLVESGGGLVQAGGSLRLSCAASGIIFDRYAKGWYRQAPGKERELVAAITYGGGSTYYADSVKGRFTISRDNAKNTVYLQMNSLKPEDTSVYYCAAVPRSGMYYWGQGTQVTVSS | high polyreactivity
20 | QVQLVESGGGLVQAGGSLRLSCAASGRIFSGYAMGWYRQAPGKEMELVAAISNSGASTYYADSVKGRFTISRDNAKNTVYLQMNSLKPEDTAVYYCAASGRVYSSGYDYWGQGTQVTVSS | high polyreactivity
21 | QVQIVESGAGLVQAGGSLRLSCAASGIIFPRYAMGWYRQAPGKERELVAAITIGGRTNYGDSVKGRFTISRDNGKNTFYLQMKSLKPEDTAVYYCAAQTFVPYSEYDYWGQGTQVTVSS | low polyreactivity
22 | QVQLVESGRGLVPAGGSLRLSCAASGSIFTDYAMGWSRKAPGKERELVATITWSDASTYYTDSVKGRFTISRDNAKNTVYLQMNSLKPEDTAVYYFARRSRYSKGYDYWGQGTQVTVSS | low polyreactivity
23 | QVQLVESGGGLVQAGGSLRLSCAASGFIFSWYAMGWYRQAPGKERELVAAITSGGRTNYADSVKGRFTISRDNAKNTVYLQMNSLKPEDTAVYYCAAAFYPFWPRYTSDYWGQGTQVTVSS | high polyreactivity
24 | QVQLVESGGGLVQAGGSLRLSCAASGRIFSYNAMGWYRQAPGKERELVAAISYGGGRTYYADSVKGRFTISRDNAKNTVYLQMNSLKPEDTAVYYCAATSSLGDFRYDYWRQGTQVTVSS | high polyreactivity
25 | QVQLVESGGGLVQAGGSLRLSCAASGFIIDPNAMGWYSQAPGKERDLVAAISSSGGRTYYADSVKGRFTISRDNAKNTVYFQLNSLKPEDTAVYYCATDTSVQGQEYDYWGKGTQVTVSS | low polyreactivity
26 | QVQLVESGGGLVQAGGSLRLSCAASGSTFVDNAMGWYRQAPGKERELVADISSGGSTYYADSVKGRFTISRDNAKNTVYLQMNSLKPEDTAVYYCNAESFYWWHSYDYWGQGTQVTVSS | high polyreactivity
27 | QVQLVESGGRLVQAGGSLRLSCAASGFTFNRYAMGGYRHAPGKERELVARITRGGSTKYADSVKGRFTISRDNAKNTVYLQMNSLKPEDTAVYYCAADYGGFLGYDYWGQGTQVTVSS | high polyreactivity
28 | QVQLVETGGGLVQAGGSLRLSCAASGNTFKYYAMGWYRQAPGKERELVAAISYSGGSTYYADSVKGRFTISRDNAKNTVYLQMNSLKPEDTAVYYCAADLDSERYYWGQGTQVTVSS | low polyreactivity
29 | QVQLVESGGGLVQAGGSLRLSCAASGSTFQHYAMGWYRQAPGKERELVAAITNTGGSTYYADSVKGRFTISRDNAMNTVYLLMNSLKPEDTAVYYCATVGRRYGYPGYYWGQGTQVTVSS | low polyreactivity
30 | QVQLVESGGGLVQAGGSLRLSCAASGSTFWNYAMGWYRQAPGKERELVAAITRGSSTNYADSVKGRFTISRDNAKNTVYLQMNSLKPEDTAVYYCANPVGRWSAFYYWGQGTQVTVSS | high polyreactivity
31 | QVQLVESGGGLVQAGGSLRLSCAASGIIIQYYAMGWYRQAPGKERELVATITLRGGITYYADSVKGRFTISRDNAKNTVYLQMNCLKPEDTAVYYCNTDQGTTSDYGYWGQGTQVTVSS | low polyreactivity
32 | QVHLVESGGGLVQAGGSLRLSCAASGSIFASNTMGWYRQAPGKERELVAGITKIGSSTYYADSVKGRFTISRDNAKNTVYLQMNSLKPEDTAVYYCNAYGPNIYSSRYDYWGQGTQVTVSS | low polyreactivity
